From the nanobody polyreactivity screen of Harvey et al. (2022) come the findings set out here.

The nature of this data set: yeast display, Sf9 membrane polyspecificity reagent, FACS + sequencing; frameworks hold sequencing errors. The method in brief: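 After 36–48 hours of galactose induction, yeast (Saccharomyces cerevisiae BJ5465) displaying a synthetic nanobody library were stained at 4 °C for 1 hour with 10% biotinylated, detergent-solubilized Sf9 membrane reagent. Streptavidin microbeads enriched the stained cells before FACS sorting into low and high (top ~1%) gates on anti-HA and streptavidin fluorescence. Each clone's polyreactivity label reflects its gate of origin.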
Turning to “QVQLVESGGGLVQAGGSLRLSCAASGSTFRSNAMGWYRQAPGKERELVAVISTRGGRTYYADSVKGRFTISRDNAKNTVYLQMNSLKPEDTAVYYCNTQISGSPYPYYYWGQGTQVTVSS”, the “polyreactivity (PSR sort gate)” value was “high polyreactivity”. On to “QVQLVESGGGLVQAGGSLRLSCAASGNMFYRNGMGWYRQAPGKERQFVAAISRRGGSTYYADSVKGRFTISRDNAKNTVYLQMNSLKPEDTAVYYCATRYWPTNKGEYWGQGTQVTVSS”, for which the “polyreactivity (PSR sort gate)” value was “high polyreactivity”. In the case of “QVQLVESGGGLVQAGGSLRLSCAASGFIIIGNAMVWYRQAPGKERELVAAISRRGGSTYYADSVKGRFTISRDNAKNTVYLQMNSLKPEDTAVYYCATDPGARVHYPTGDYWGQGTQVTLSS”, the “polyreactivity (PSR sort gate)” value is reported as “high polyreactivity”. For the sequence “QVQLVESGGGLVQAGGSLRLSCAASGLIFRWYAMGWYRTAPGKERELVAAISRRGGTTNYADSVKGRFTISRDNAKNTVYLQMNSLKPDDTAVYYCAADYQSVGGAEYDYWGQGTQVTVSS”, the “polyreactivity (PSR sort gate)” value is given as “high polyreactivity”.

In the case of “QVQLVESGGGLVQAGGSHRLSSAASGSIIPSYAMGWYRQAPGKERELVAAITTSGGNTFYADSVKGRFTISRDNAKNTVYLQMNSLKPEDTAVYYCAADYSPYTVEYDYWGQGTQVTVSS”, the “polyreactivity (PSR sort gate)” value is “low polyreactivity”.

As for “QVQLVESGGGLVQAGGSLRLSCAASGRIFYYNAMGWYRQAPGKERELVAAITSGGSTNYADSVKGRFSISRDNAKNTVYLQMNSLNPEDTAVYYCAADYYYYVAGVHYDYWGQGTQVTVSS”, the “polyreactivity (PSR sort gate)” value is on record as “low polyreactivity”. As for “QVQLVESGGGLVQAGGSLRLSCAASGSIFYTYAMGWYRQAPGKERELVAAISWSDTTTYYAVSVKGRFTISRDSAKNTVYLQMNSLKPEDTAVYYFAADAYTNSYWYDYWGQGTQVTLSS”, the “polyreactivity (PSR sort gate)” value is listed as “high polyreactivity”.

Regarding “QVQLVESGGGLVQAGGSLRLSCAASGFIFNTNAMRWYRQAPVKEREFDAAITSSDGNTYYADSVKGRFTISRDNAKNTVYLQMNSLKPEDTAVYYCAADARTKSYVRLYDYWGQGTQVTVSS”, the “polyreactivity (PSR sort gate)” value is given as “low polyreactivity”. As for “QVQLVESGGGLVQAGGSLRLSCAASGSTLSYNAMGWYRQAPGKERELVAAISGRGGSTSYADSVKGRFTISRDNAKNTVYLQMNSLKPEDTAVYYCNRYSRSAYEWEYYSWGQGTQVTVSS”, the “polyreactivity (PSR sort gate)” value is reported as “high polyreactivity”. Turning to “QVQLVESGGGLVQAGGSLRLSCAASGITFEGYSMGWYRQAPGKERELVAAIRSSGTSTYYADSVKGRFTISRDNAKNTVYLQMNSLKPEDTAVYYCNRARSSSRYDYWGQGTQVTVSS”, the “polyreactivity (PSR sort gate)” value was “low polyreactivity”. For “QVQHVESGGGLVQAGGSLRLSCAASARTFHGYPLGVYRQAAGKETELVARINWSDGRTYYADSVKGRFTMSRDNAKNTVYFQMNSLKPEDTAFYYCAAEKTVSYAPAWYYYWGQGTQVTVSS” the value was “low polyreactivity”. For “QVQLVESGGGLVQAGGSLRLSCAASGGTFSKYAMGWYRQAPGKEREFVAAITVSGGGTYYADSVKGRFTISRDNAKYTVYLQMNSLKPEDTAVYDCAADLAWTASDYWGQVTQVTVSS”, the “polyreactivity (PSR sort gate)” value is “low polyreactivity”. For “HDQLVESAAGLVQAGGSLRLSCAASVLTFYQNALGWYRQAAGKEMEFVAAISRRGGSTYYADSVKGRFTISRDNAKNTVYLQMNSLKPEDTAVYYCAADYKRKSDGDYWGQGTQVTVSS”, the “polyreactivity (PSR sort gate)” value is “high polyreactivity”. Take “QVQHVESGGGLVQAGGSLRLSCAASGIIIKFYAMGWYRKAPVKERELVATITFSSGTTYYADSVKGRFTMSRDNAKTTVYFQMNSLKPEDTAVYYCAASTLPAWPYDGPAGPRYDYWGQGTQVTVSS”: the “polyreactivity (PSR sort gate)” value was “low polyreactivity”. Take “QVQLVESGGGLVQAGGSLRLSCAASGIILDRNAMGWYRQAPGKERELVAAINSIGGSTYYADSVKGRFTISRDTAKNTVYLQMNSLKPEDTAVYYCNVAQRYYGNFFSSRYEYWGQGTQVTVSS”: the “polyreactivity (PSR sort gate)” value was “low polyreactivity”. On to “QVQLVESGGGLVQAGGSLRLSCAASGYTFGFYTRGWYRQAPGKERELVAGISWSGGSTYYADSVKGRFTISRDNAKNTVYLQMNSLKPEDTAVYYCATRWRGRYDYWGQGTQVTVSS”, for which the “polyreactivity (PSR sort gate)” value is listed as “high polyreactivity”. Consider “QVQLVESGGGLVQAGGSLRLSCAASGITFYGYTMGWYRQAPGKERELVAAITYFGSTYYADSVKGRFTISRDNAKNTVYLQMNSLKPEDTAVYYCAAQRFRSGWFGYWGQGTQVTVSS”, for which the “polyreactivity (PSR sort gate)” value is reported as “high polyreactivity”. For the sequence “QVQLVESGGGLVQAGGSLRLSCAASGFTFIYYAMGWYRQAPGKERELVAAISKRGGSTYYADSVKGRFTISRDTAKNTVYLQMYSLKPEDTAVYYCAPAFGQRRYDYWGQGTQVTVSS”, the “polyreactivity (PSR sort gate)” value is “high polyreactivity”. Turning to “QVQLVESGGGLVQAGGSLRLSCAASGSIFYTNAMGWYRQAPGKERELFASISRRGGSTYYADSVKGRFTISRDNAKNTVYLQMNSLKPEDTAVYYFATDGYTPYRWLWWLMDYWGQGTQVTVSS”, the “polyreactivity (PSR sort gate)” value is “high polyreactivity”. Consider “QVQLVESGGGLVQAGGSLRLSCAASGRIITYYAMGWYRQAPGKERELVAAITASGSRTYYADSVKGRFTISRDNAKNTVYLQMNSLKPEDTAVYYCAALSRLSPLSGSYYWGQGTQVTVSS”, for which the “polyreactivity (PSR sort gate)” value is “high polyreactivity”. With “QVQLVESGGGLVQAGGSLRLSCAASGRISPKNAMGWYRQAPGKERELVATIRKIGGRTYYADSVKGRFTISRDNAKYTVYLQMNSLKPEDTAVYYCATDFAPSYYPDRFDYWGQGTQVTVSS”, the “polyreactivity (PSR sort gate)” value is “low polyreactivity”. Turning to “QVQLVESGGGLVQAGGRLRLSCAASGLIFWFNTMGWYRQAPGKERELVAAITSGGGSTYYADSVKGRFTISRDNAKNTVYLQMNSLKPEDTAVYYCNAGAGRWRARQWHDYWGQGTQVTVSS”, the “polyreactivity (PSR sort gate)” value was “low polyreactivity”. With “QVQLVESGGGLVQAGGSLRLSCAASGSIFGGYAMGWYRQAPGKERELVASITASGGSTYYADSVKGRFTISRDNAKNTVYLQMNSLKPEDTAVYYCAAEVFSGYDYDYWGQGTQVTVSS”, the “polyreactivity (PSR sort gate)” value is recorded as “low polyreactivity”. For the sequence “HDQLVESGGGLVEAGGSLRLSCAASGITFKGYAMGWYRPAPGKERELVAAITSGGSTKYADSVKGRFTSSRDNAKNTVYLQMNSLKPEDTAVYYCAAAVVNYGWWTYGYYGFGYWGQGTQVTVSS”, the “polyreactivity (PSR sort gate)” value is given as “high polyreactivity”.

Regarding “QVQLVESGGGLVQAGGSLRLSCAASGRIFYGYAMGWYIQAPGKERELVAAITYIGGTYYADSVKGRFTISRDNAKNTVYLQMNSQKPEDTSVYYCASEPFYNFVYYTYPYWYDYWGQGTQVTVSS”, the “polyreactivity (PSR sort gate)” value was “low polyreactivity”. As for “QVQLVESGGGLVQAGGSLRLSCAASGRILLRNVMGWYRQAPGKERELVAVITRTGITYYADSVMGRFTITRDNAKNTVYLQMTSLKPEDTAVYYCAAGLPKYEHDYWGQGTQVTVSS”, the “polyreactivity (PSR sort gate)” value is recorded as “low polyreactivity”. Regarding “QVQLVESVGGLVQAGGSLRLICAASGSIFIGYAMGWYRQAPGKERELVAAISNSGGRTYYADSVKGRFTISRDYAKNTVYLQMNSLKPDDTAVYYCAARLRYRGRRYDYWGQGTQVTVSS”, the “polyreactivity (PSR sort gate)” value is “high polyreactivity”. “QDQLVESGGGLVQAGGSLRLSCAASGSIIVRNAMGWYRQAPGKERELVAAISRSGSSTYYADSVKGRFTISRDNAKITVFCQMNSLKPEDTAVYYCAKRRPALRWIYYYWGQGTQVTVSS”: the “polyreactivity (PSR sort gate)” value is “high polyreactivity”. In the case of “QVQLVESGGGLVQAGGSLRLSCAASGSTFNRYAMGWYRQEPGTERELVASIRISGGSTYYADSVKGRFTISRDNAKNTVYLQMNSLKPEDTAVYYCNAKLFIRWFTYDFLGQGTQVTVSS”, the “polyreactivity (PSR sort gate)” value is on record as “low polyreactivity”.

Consider “QVQLVESGGGLVQAGGSLRLSCAASGNTFYRYAMGGYRQSPGKERELVAAITWSGSRTYYADSVKGRFTISRDNAKYTVYLQMNRLKPEDTAVYYCAAPFWYVGPAMDYWGQGTQVTVSS”, for which the “polyreactivity (PSR sort gate)” value was “low polyreactivity”.

As to “QVQLVESGGGLVQAGGSLRLSCAASGRTFGYNAMGWYRQAPGKESELVAVISRGSRTYYADSVKGRFTISRDNAKNTVYLQMNSLKPEDTAVYYCAADYEYSGYGYWGQGTQVTVSS”, the “polyreactivity (PSR sort gate)” value is given as “high polyreactivity”. On to “QVQLVESGGGLVQAGGSLRLSCAASGRIFIRNAMGWYRPAPGKERELVAAITQSGGSTYYADSVKGRFTISRDNAKNTVYLQMNSLKPEDTAVYYCAADGDNPYLHEEDYWGQGTQVTVSS”, for which the “polyreactivity (PSR sort gate)” value is recorded as “high polyreactivity”. In the case of “QVQLVESGGGLVQAGGSLRLSCAASGGTFYNYAMGWYRQAPGKERELVAAITYSGGITYYADSVKGRFTISRDNAKNTVYLQMNSLKPEDTAVYYCNTDGINSSVVVVDDYWMDYWGQGTQVTVSS”, the “polyreactivity (PSR sort gate)” value was “low polyreactivity”.

For the sequence “QVQLVESGGGLVQAGGSLRLSCAASGCIFASYPMGWYRPAPGTERELVAAISRAGSTYYADSVKGRFTISRDNAKNTDYLQMNSLKPEDTAVYYCNADFNWGYNYWGQGTQVTGSS”, the “polyreactivity (PSR sort gate)” value was “high polyreactivity”. On to “QVQLVESGGGLVQAGGSLRLSCAASGRIFDPNAMGWYRQAPGKERELVAAISSRSGSTFYADSVKGRFTISRDNAKNTVYLQMNSLKPEDTAVYYCAAVYRFYKHNYWGQGTQVTVSS”, for which the “polyreactivity (PSR sort gate)” value is “high polyreactivity”. For “QVQLQESGGGVQAGGSLRLSCAASGSISAPILMGWYRQAPGKERELVAGIGGGANSYYADSVKGRFTVSRDNAKYTVYLQMNSLKPEATAVYYCAAGDYYWTNFGYWGQGTQVTASS” the value was “high polyreactivity”; for “QVQLVESAGGLVQEGGSLRVSCAASGRTFGRYAMGRYRQAPGKEREMVAAITVGGGSTYYADSVKGRFTISRDTAKNTVYLQMNSLKPEDTAVYYCNALHTYTYRYDYYYWGQGTQVTVSS”, “high polyreactivity”; for “QVQLVESGGGLVQAGGSLRLSCASSGRIFYSYAMGWYRQAPGKERELVAAITVSGGSTFYADSVKGRFTISRDNAKNTVYLQMNSLKPEDTAVYYCAAQSTTIEDGWYVEYNYWGQGTQVTVSS”, “high polyreactivity”.

“QVQLVESGGGVVQAGGSLRLSCAASGSTLVVNGLGWYRQAPGKDRELVAAISWSGGTTYYADSVKGRFTISRDNAKNTVDLQMNSLKPEDTAVYYCAADSYTEVDYWGQGTQVTVSS”: the “polyreactivity (PSR sort gate)” value is given as “low polyreactivity”. As for “QVQLVESGGGLVQAGGSLRLSCAASGILSLYTMGCSIQAPGKERELVAAISFRGGNTYYADSVKGRFTISRDNAKNTVYLQMNSLKPEDTAVYYCNAVTRPWRRGYDYWGQGTQVTVSS”, the “polyreactivity (PSR sort gate)” value was “high polyreactivity”.

On to “QVQLVESGGGLVQAGGSLRLSCAASGSIFLNYAMGWYRQAPGNERELVAGISNGGSTNYADSVKGRFTISRDNAKNTVYLQMNSLKPEDTAVYYCARPAYKSRGKRFDYLGQGTQVTVSS”, for which the “polyreactivity (PSR sort gate)” value is recorded as “low polyreactivity”.
